± gives the uncertainty stated by the source.
Experiment: amyloid nucleation score (Sup35N fusion, yeast selection) (log enrichment); library NNK2; higher = more nucleation; inactive = no reads after selection
Outline: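 Using DiMSum, nucleation scores were taken as the log enrichment of output over input reads, centred on the mode score of non-aggregating sequences. The input and output reads came from Illumina sequencing of plasmid inserts, with sequences under 100 input reads excluded. The yeast were psi-negative, expressed Sup35N fused to peptides of 20 random codons, were induced with 100 μM copper sulfate for 24 hours, and were grown 7 days at 30°C on medium lacking adenine and uracil.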

| Substance | amyloid nucleation score |
| --- | --- |
| YYSWFSVYSIIILHNQQFRL | inactive |
| NAYVEIIIWASRDFMYCRHM | -0.262 ± 0.79 |
| LSYNQD | -0.581 ± 0.64 |
| FFSNRNCLE | -1.34 ± 0.64 |
| KGRYSGEGEIAFLQRVVGSG | 0.434 ± 0.41 |
| GLVLWRRHFKAAASVSMQSW | 0.216 ± 0.4 |
| AVKCVVEVTPWLDVKIKSFY | -0.735 ± 0.55 |
| HNLLSRSAQPRGPLRPVRRH | 2.35 ± 0.16 |
| YLGLDARLI | 0.661 ± 0.8 |
| NYFCIRS | 4.11 ± 0.052 |
| DVDSCW | 0.554 ± 0.43 |
| IYVECWRHRLILCIHA | 0.214 ± 0.49 |
| RTMSNGSDVCFNNGMFHYLN | -1.04 ± 0.76 |
| AYMSITSSLYNCTRRPTGTC | -1.35 ± 0.38 |
| VQKRRGFILTSFR | -0.173 ± 0.39 |
| VTKILCSRTWGKSG | 0.325 ± 0.44 |
| VYPVSPIMKGV | 0.163 ± 0.49 |
| GAYNNFIMCKSFVFSFQSGD | 6.33 ± 0.063 |
| LGVNYAMNVTSGSQTFMRDG | -0.243 ± 1 |
| DYDEIMRLMLWSSLLLFR | 0.47 ± 0.34 |
| MLKSHVI | -0.374 ± 0.32 |
| EGLIDCCIH | inactive |
| FNVKWMRW | 5.36 ± 0.066 |
| CHANFNVG | 1.58 ± 0.19 |

| Substance | amyloid nucleation score |
| --- | --- |
| PCCVKSELGLPQWWSVYL | 5.645 ± 0.056 |
| HVISTSW | inactive |
| LFIYYWYLLFYGSPYIWLPV | -0.363 ± 1.1 |
| HILMKN | -0.013 ± 0.42 |
| NNNGV | 1.45 ± 0.13 |
| NSMTQFCIQCGGTTIAWSMF | 6.663 ± 0.039 |
| DLFVSGTVETFPANWGGMSR | 0.665 ± 0.42 |
| LWYMMYLRPLWVRPKIDNEV | 1.11 ± 0.24 |
| RYNLARSLLFHHNTCVFMSV | -0.491 ± 0.53 |
| SRRVLYMVVPPLVF | -1.36 ± 0.54 |
| RQRVMHAHHCLLYLMVKHFI | -0.675 ± 1.1 |
| KYVGWQYLSSCILGVFPLAG | 0.151 ± 0.32 |
| FAIDMRYVGGQGCCILYIRR | 0.075 ± 0.44 |
| FCLTVLVV | 4.18 ± 0.11 |
| LLEYCCYFYRN | 3.57 ± 0.12 |
| RMLGALFGMHVNYRAVSELF | 1.49 ± 0.12 |
| YKLRSQ | -0.184 ± 0.27 |
| MITWCHIVALSNVGTVVSYN | inactive |
| ARRVQRKSIPTFVSSAMMSD | -0.25 ± 0.36 |
| RVVQKKQLIV | 0.3 ± 0.49 |
| CYSILFSLKQIDRLLITLPR | -1.04 ± 0.5 |
| NICLGMCLYHGVSDAVDQSR | 7.971 ± 0.055 |
| SKFNFIYCAGDQLSYRYRLG | -0.728 ± 1 |
| LRFPRWSPADGDSILHTTSQ | 0.673 ± 0.66 |

| Substance | amyloid nucleation score |
| --- | --- |
| GSAFGGRRLFEGLRGGIREW | 0.665 ± 0.4 |
| NIQTWGSGHVSTSDG | 3.24 ± 0.089 |
| YIYRNITRLQKSCSIIISGR | -1.88 ± 0.64 |
| SSWPSMST | -0.458 ± 0.28 |
| FSEYWVLSELVMVNKGVIWM | -0.865 ± 0.36 |
| RKATQIPMSVSMER | 1.45 ± 0.4 |
| RYRWARLHGVLVHDWLLLIW | inactive |
| IVRNPKLMLSNGH | 0.907 ± 0.58 |
| YNVDDCSHRDRFIDNRDSEC | inactive |
| NPLAIVAS | -1.77 ± 0.78 |
| NGNIKFFHRMRRTRHVACLY | 0.223 ± 0.39 |
| VSHILINVSRGLRGS | -0.261 ± 0.8 |
| VGKRIVHIFCVEFGSLMGC | inactive |
| DKDCVGIVLLFGQCVSITLA | inactive |
| CSSDSIYSSWWFSLYNITGE | inactive |
| LMMSVWF | 5.48 ± 0.063 |
| LLFPM | 0.647 ± 0.8 |
| YLICD | -0.578 ± 0.76 |
| LVLWKLQVCSPLTVLRTPYR | 0.889 ± 0.28 |
| HGTIFTIYVC | -0.875 ± 0.42 |
| FHIQTRCMCGGMRYIFYVWY | 0.432 ± 0.8 |
| WCEGHKSW | -0.817 ± 1 |
| NILRATTFCVDHLYSSFFCT | 6.74 ± 0.068 |
| NTITIMHSDEYVMRVSYICQ | 1.87 ± 0.2 |
